Target: T1, PD-1 (UniProt Q15116 25-288, limits assumed)
T1 construct: whole, on cells; also called Jurkat/PD-1细胞表面的PD-1
Assay: Jurkat/PD-1 + CHO/PD-L1 NFAT-luciferase reporter blocking assay

T1 sequence (Q15116 25-288 limits assumed): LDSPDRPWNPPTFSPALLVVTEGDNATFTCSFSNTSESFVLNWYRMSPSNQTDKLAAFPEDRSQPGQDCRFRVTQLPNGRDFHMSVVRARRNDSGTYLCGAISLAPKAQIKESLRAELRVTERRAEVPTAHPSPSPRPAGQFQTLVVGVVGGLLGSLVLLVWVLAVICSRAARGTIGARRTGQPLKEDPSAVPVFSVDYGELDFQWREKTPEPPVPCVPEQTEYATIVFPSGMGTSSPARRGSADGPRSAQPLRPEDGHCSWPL

binding result: binds
B1: G-Ab1 (antibody, human IgG4 S228P, kappa, V domains shown)
VH: QIQLVQSGSELKKPGASVKVSCKASGYTFTNFGMNWVRQAPGQGLKWMGWISGYTREPTYAADFKGRFVISLDTSVSTAYLQISSLKAEDTAVYYCARDVFDYWGQGTLVTVSS
VL: DIVLTQSPASLAVSPGQRATITCRASESVDNYGYSFMNWFQQKPGQPPKLLIYRASNLESGVPARFSGSGSRTDFTLTINPVEADDTANYYCQQSNADPTFGQGTKLEIKR
notes: An IgG4 isotype control was used alongside it; also called 抗PD-1抗体; G-Ab1抗体

Source: CN115607664A (GENOR BIOPHARMA CO LTD, dated 2023)
